According to the DeepSol protein solubility set:

Assay: soluble on expression in E. coli; label from the status in PepcDB or PDB records
With “MAANRVAMEEDITESVTLMVDSVSSSPMTPKTVTVKEDETHHPYAFHVSGPRNVASPNWRDLINSSWKDPNYKRTVMACFIQAAYLLELDRQENRNEQNALAPKWWIPFKYKLSQTLIDERDGSIFGAVLEWDRAAAMADLVVIRPSGAPKAVLALRGTILKSLTMRRDIEDDLRFLAWESLKGSVRFNVALEALQSVATRYGSSNVCVVGHSLGAGFALQVGKSLAKEGLFVDAHLFNPPSISVAMSLRNISEKAGVAWKRLMSMLPPKHEPLIQNSNEGQVSPSNVSSGFRNWVPSFYGSNQKPTVDLRKWVPHLYVNDSDYICCHYTDQDGVAEKREMNNKENNSPVVNTNFQAAAKLFVMSKGKQKFHEAHGLEQWWSDNLELQSAIHSSRLISQQLKSLYSIK” the “soluble on expression in E. coli” value was “soluble”.
With “MAQSEISKREKGRALITVANNVAGFNLWKRLVEEGYDVDAILPSEDKYNLLLSELVSRKNKKYDFIVNTVDRHDYAVVTNKMLKWLYPTEKIIFISSDLVYEPRPGKKKENDNAYPPTMEGKYFLEAESALDVNSDLVLRVGLVTGRCVPNILTNTINLSRANMSIDLSGAVVRNFISNADLSEYIIRLLDKNGIYNASAKSMTPRDFALELCAKINVNCKLRRTTDDKVFDYSMDTTKIELTTGYYTKDIFANISSGLYLLG” the “soluble on expression in E. coli” value was “soluble”.
For “MSLLNENDIEQLTLQRLQSLGWEYRYGKDLPVHEGKFARGDLSGVVFVEQLREAVRKLNPQLPESAVDSVVKSATKSDIGDLVVRNQTFYKLLRDGVRVEYTQNGEQKIEMVRLVDFEHWGNNRFVAVNQLEIRSRKGGKRIPDIIGFVNGLPLVVFELKNPLRESADLLQAFNQFETYKDEIAELFVYNQALIISDGIVARLGSLSADFQRFTPWKVVDEKNKSARLYFDDELQSLLNGLMQPEDLLDYIRYFVLFERDSVGKTIKKIAAYHQYYGVNEAVDSTIWATSEKGDRRIGVMWHTQGSGKSISMLFYAGKLLAQPELKNPTIVVVTDRNDLDGQLFQTFSSGKDLIKQTPQQVEDRDQLRQLLAQNEVGGVFFTTIQKFALNEEESRFPILNERNNIIVISDEAHRSQYGFTQKLHNGKFQTGYARHLRDALPNASFIGFTGTPISLEDKDTQDVFGRYVSIYDLQDAVEDGATVPIVYDDARQIRLNKKDHDALFAEIDALLEEEPSTSLRLREKLLGSQERLIELAADFVQHFAKRNEVVDSKAMMVVSSRQICVDLYNQIIALHPEWHSDNINEGAIKIVMTGSASDTPEMQKHIYSKQEKQTLERRFKDPNDPLKVVIVRDMWLTGFDAPCCNTMYLDKPMKGHNLMQAIARVNRVFANKSRENGGLIVDYVGLAKELRAATQQYTNSTGKGQLAEDVQSVFFKMKEQLEFIRTLFATPIEGKTFDVQAALEKDNPNDLLMAIRFAANHILSLDQLSFDGKAHEQHWFNKKETEPRKKAFLKTAGLVKKGYMLCGTLAEVEPYNQEIAFYDAVRAILTKREQKGTGTNERQILLKKLVNQTVYSEGVIDLFDLLEKPQPQISLLSEEFLQTVKNSPTKNLWVSAMERYLASEIKVKSGTNLTLQKDFERRLKEALNQYHNHNLTVVEILDELFKMSQDFQERLALGKKLGLTKEELAFYEALSQNQSAKDLMGDEVLSKLAKEITETLRKSVTIDWQYKEAVRARIRLLVRRALQKYKYPPDKQEEAVTYVIKQAEEIAEDLTGLEGHHHHHH”, the “soluble on expression in E. coli” value was “soluble”.
For “SNAMLGGIEAGGTKFVCAVGREDGTIIDRIEFPTKMPDETIEKVIQYFSQFSLQAIGIGSFGPVDNDKTSQTYGTITATPKAGWRHYPFLQTVKNEMKIPVGFSTDVNAAALGEFLFGEAKGLDSCLYITIGTGIGAGAIVEGRLLQGLSHPEMGHIYIRRHPDDVYQGKCPYHGDCFEGLASGPAIEARWGKKAADLSDIAQVWELEGYYIAQALAQYILILAPKKIILGGGVMQQKQVFSYIYQYVPKIMNSYLDFSELSDDISDYIVPPRLGSNAGIIGTLVLAHQALQAEAASGEVRS”, the “soluble on expression in E. coli” value was “soluble”.
In the case of “QSNAIWGLDRIDQRNLPLDRNYNANFDGFGVTAYVIDTGVNNNHEEFGGRSVSGYDFVDNDADSSDCNGHGTHVAGTIGGSQYGVAKNVNIVGVRVLSCSGSGTTSGVISGVDWVAQNASGPSVANMSLGGGQSTALDSAVQGAIQSGVSFMLAAGNSNADACNTSPARVPSGVTVGSTTSSDSRSSFSNWGSCVDLFAPGSQIKSAWYDGGYKTISGTSMATPHVAGVAALYLQENNGLTPLQLTGLLNSRASENKVSDTRGTTNKLLYSLADSGCEPDCGGP”, the “soluble on expression in E. coli” value is reported as “soluble”.
In the case of “MNITQAAEQAIRLWFNTPDPMQRLHMAKTIRTWIRQDKFAQVDQANMPNCVQQILNIIYDGLKPQPVQLPISYYAQLWYNLLDILRRFTFLPIISPYIHQVVQMFCPRENGPQDFRELICNLISLNWQKDPHMKHCANQVFQIFNCIIMGVKNEKLRTEFAQHLKFEKLVGTLSEYFNPQVHPGMINPAIFIIFRFIISKDTRLKDYFIWNNNPHDQPPPPTGLIIKLNAVMIGSYRLIAGQNPETLPQNPELAHLIQVIIRTFDLLGLLLHDSDAIDGFVRSDGVGAITTVVQYPNNDLIRAGCKLLLQVSDAKALAKTPLENILPFLLRLIEIHPDDEVIYSGTGFLSNVVAHKQHVKDIAIRSNAIFLLHTIISKYPRLDELTDAPKRNRVCEIICNCLRTLNNFLMMWIPTPNGETKTAGPNEKQQVCKFIEIDILKKLMSCLSCEGMDTPGLLELRSTILRSFILLLRTPFVPKDGVLNVIDENRKENLIGHICAAYSWVFRQPNNTRTQSTKQQLVERTISLLLVLMEQCGAEKEVAQYSYSIDCPLNLLNGNQVKPTFIHNVLVVCDKILEHCPTRADIWTIDRPMLEGLTNHRNSDIAKAANSLLSRFPEN”, the “soluble on expression in E. coli” value is reported as “soluble”.
With “MSSTPQFLRWYEQNKPVPYRSVLQEKFEPGQTLIVKGSTIDESQRFTINLHSKTADFSGNDVPLHVSVRFDEGKIVLNSFSNGEWGKEERKSNPIKKGDSFDIRIRAHDDRFQIIVDHKEFKDYEHRLPLSSISHLSIDGDLYLNHVHWGGKYYPVPYESGLANGLPVGKSLLVFGTVEKKAKRFHVNLLRKNGDISFHFNPRFDEKHVIRNSLAANEWGNEEREGKNPFEKGVGFDLVIQNEEYAFQVFVNGERYISFAHRADPHDIAGLQISGDIELSGIQIQ” the “soluble on expression in E. coli” value was “not soluble”.
With “MGSDKIHHHHHHMYYRKRFCVGRNNERRMKAMARDTGLDHLGAMRAFVRVVEMGSFSAVAKEMHVSTSTVARKITAIEEALGVALLHRSTHSVTLTEAGHIYLERAVTLIADLDDTLRVVAELNAQPSGPLKLTAPVAFGRRHLAPLIAPFLARYPTIQLDVRLTDNHNDLVAGGYDLDIHEGENYLDNLVVHRLSRNDSILCATPGYLDRCGRPATPDDLLHHNCLRYVHPEGDPRWELVRGDARHSVLPAGNLVTDHSELLLEATCAGLGIAEFEIWLVRDLLASGRLEAVLPRYRLHNKLTGEHIYIAYLANRRSSAKLRVLKDFLADQLAHIGELSEVELMKIRDAGA” the “soluble on expression in E. coli” value was “not soluble”.
For “MNIEEFTSGLAEKGISLSPRQLEQFELYYDMLVEWNEKINLTSITEKKEVYLKHFYDSITAAFYVDFNQVNTICDVGAGAGFPSLPIKICFPHLHVTIVDSLNKRITFLEKLSEALQLENTTFCHDRAETFGQRKDVRESYDIVTARAVARLSVLSELCLPLVKKNGLFVALKAASAEEELNAGKKAITTLGGELENIHSFKLPIEESDRNIMVIRKIKNTPKKYPRKPGTPNKSPIEG”, the “soluble on expression in E. coli” value was “soluble”.
For “MEKQPNKLIREKSPYLLQHAWNPVDWHPWGEEAFSRARETGRPIFLSSGYSTCHWCHVMEHESFENAETAALLNRHFVPVKLDREEHPDVDHLYMMFVQATTGRGGWPMSVWMTPDLKPFFGGSYFPATERWGMPSFRSVLEHLANLWEHDRPRLLASAGSIMDQLSGLTRP”, the “soluble on expression in E. coli” value was “not soluble”.
In the case of “MAHHHHHHMRRVIHGEVRHHNTDTNNTRIPWDFTMASYEEINNVILPKFPRSRRRSAIIPLLHLAQRQQGGYIPVTAMYKIARICEVPPMQVFETVTFYSMFNRQPVGKYHIQFCVTTPCMLCGCDELVHRTEAYLNVKMHGTTRDGLITLGEMQCLGACVNAPMLVVSDYSRPPHFSYDFVEDLTWDSVKELIENLREGRPFKVGTCREDRRWSEPAGGRTSIFMKEPPKPYCRDLDAKPVQPGASTGGAAKK”, the “soluble on expression in E. coli” value is reported as “not soluble”.
In the case of “MGSDKIHHHHHHMRVIELEDLDHIREAIVILKGLEVEGANKPGEKLGFKKGKNLMSIFTCKEMDRFIRDVQERKNFSLETNAYFFELHSKRFVSLRYLPKKSLLFVNDLTEERTLSEAKLDFVTAVSHELFTPLSASKANVFLLKDIENDPEKLEILGKVERSLDRMETIIRQLKVLTMIQLRLYELKMEHIPVEEVVHMVLEELREKIESKKIKVNVFVDVETIETDRFVFHTILKNLVSNAVKYSYPDSVVEISITGERLSVKDQGIGIKEEEKSRIFERFYRGSEALKMAPGSGLGLSIVKHLCDTIGYRLEVNSQWLVGSEFIVHFK”, the “soluble on expression in E. coli” value is reported as “not soluble”.
With “MGSDKIHHHHHHMYRLSQYETPLFTALVEHSKRNPIQFHIPGHKKGQGMDPEFREFIGHNALAIDLINIAPLDDLHHPKGMIKEAQDLAAAAFGADHTFFSIQGTSGAIMTMVMSVCGPGDKILVPRNVHKSVMSAIIFSGAKPIFMHPEIDPKLGISHGITIQSVKKALEEHSDAKGLLVINPTYFGFAADLEQIVQLAHSYDIPVLVDEAHGVHIHFHDELPMSAMQAGADMAATSVHKLGGSLTQSSILNVKEGLVNVKHVQSIISMLTTTSTSYILLASLDVARKRLATEGTALIEQTIQLAEQVRDAINDIEHLYCPGKEMLGTDATFNYDPTKIIVSVKDLGITGHQAEVWLREQYNIEVELSDLYNILCLVTFGDTESETNTLIAALQDLSATFKNKADKGVQVQVEIPEIPVLALSPRDAFYSETEVIPFENAAGRIIADFVMVYPPGIPIFTPGEIITQDNLEYIRKNLEAGLPVQGPEDMTLQTLRVIKEYKPIS” the “soluble on expression in E. coli” value was “not soluble”.
For “GPGSMIGAPWPPEAVFGNTVDRVASPAPVPERKISIADQLHLPLSRFVEKMSWGEKRRVQILHGMLYPATVYLLDECSTDIDVAERRTVLELVRQECEAKDGCCVYATHIFDGIEGWATHLLLMEGGRVVDFKAVEKLTLPLEDYALQFMSKRAHAARGVDGVAAASLSHGSSAAISTTSPACPTTAAAACPTSATTDAPVTYWPRGHADEKRSEIVINCAQLNYKDVFKNLSFQVFRGERVLLCGGNGTGKSTLLNMLGGKQFFDNRQGSLSVLGKRCYDDMLLNALVSYGGDWWTAVPGGEVHVREMLQLRTSRAERLCEMLAVDMDWDVRHISAGEQKRVQLLLHLLDDKPVVLLDEATTDLDVYQRHSLLQFLYEESVQRGVTVVYSTHIFGGVEGWANVVVLLDRTVRGVHAVWRASEGQPIVLQRVVDAIVSLKAREVF”, the “soluble on expression in E. coli” value was “not soluble”.
For “MTQRLHRDRHDRGVRGPLFSSALPRYCSRRQRFDATVLEAYAPLQQRYAAQLTHLDIAVDTVPRMRLGFDPALVPDEVVADGPVPLGRVIPAGVDSSGHPTRARLVLFRMAIEQRVVSAQERRELVTTVLTALVANYLNISPTDIDPNFQW”, the “soluble on expression in E. coli” value was “not soluble”.
With “MVDYHYFKSKLNHFYGRYVGYNQRPVFFDIDQTFPELNHITRHFPDIKREFENVQANVKEFPRYHDIDPGESAISNTTEKNWNVFMLYLLGYQLKEARLLCPELCNLLEGIPHLIQAFFSILEPGKSIPLHEGPYIGYLRYHLGIHVPQNNPPQILVNNQTYTWKEGEAVLFDDSWPHEVRNTSDDYRAVLIIDVLRPMPFLPQLVNQFVTHVIARYFYGRKVMKRAMQYGGEVKPLAL” the “soluble on expression in E. coli” value was “not soluble”.
In the case of “LYKKAGLMVDKKLVVVFGGTGAQGGSVARTLLEDGTFKVRVVTRNPRKKAAKELRLQGAEVVQGDQDDQVIMELALNGAYATFIVTNYWESCSQEQEVKQGKLLADLARRLGLHYVVYSGLENIKKLTAGRLAAAHFDGKGEVEEYFRDIGVPMTSVRLPCYFENLLSHFLPQKAPDGKSYLLSLPTGDVPMDGMSVSDLGPVVLSLLKMPEKYVGQNIGLSTCRHTAEEYAALLTKHTRKVVHDAKMTPEDYEKLGFPGARDLANMFRFYALRPDRDIELTLRLNPKALTLDQWLEQHKGDFNLL”, the “soluble on expression in E. coli” value is reported as “soluble”.
